In the supplement of paper PMC12636428:

test system: Saccharomyces cerevisiae; experiment: transcriptional activation domain activity (GFP:mCherry ratio, weighted mean of sorted bins, harmonized to initial dataset scale) (arbitrary fluorescence ratio units); higher = stronger transcriptional activation; details: beta-estradiol 1 µM; induction time 4 h
How it was run: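 Sorting into 8 bins by GFP:mCherry ratio followed a 4-hour hold at 30 °C after cultures were diluted 1:5 into SC with 1 uM beta-estradiol. The yeast diploids carried a GFP reporter and had barcoded protein tiles, fused to an estradiol-inducible synthetic transcription factor, integrated at URA3. Barcodes were then sequenced, and tiles with under 50 reads were removed. Activation activity is the read-weighted mean of bin median fluorescence, averaged across barcodes and linearly mapped onto the initial dataset scale.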

Row | Sequence | transcriptional activation domain activity
1 | SRVSLTVFRFSYVWLSLIFAIPLLCAVLIELYFLMPLHAWMGPSEPHVVHLIQ | 46800
2 | LRRGFSKLLLIDDLYVLDKHLRSDRLRDLLWSAYVRAIVPRLCLIAFNFCQPF | 60800
3 | SIYLCTHGTFFVVVTPIYFDYPCCGNPLVLFSSTLGMIIHFILFFFCLPCFFL | 63100
4 | TAKLLLEDSMKKKRQEIQQLEQATHQRSNLETTHLLDIDWDALLDPSDTLNFM | 90000
5 | GASPEESNSGNSRAGASRARKGSKVIDENMVEDALLGLQITHGCLVHHTASVQ | 44800
6 | TTGGLFGGGAANTGTTGGFGSGGGFGSSTTGGGGLFGNAGNQPKPAGLFGSST | 27700
7 | FSLLLDSYIFLFNYCPVRYRYGYLIKDLVQNASRIKSIYTNSDLKFLFSFVWM | 53800
8 | GKPAASAFGGGSSAFGAGSGAFGGGGGGGPSAFGAPASKPSAFGTGGAFGGGA | 51100
9 | GCRKDQRARRRRSPALANRPEMKGVCLKTGITKPKKPNSGERKTARIRLSSGR | 38900
10 | ENASEPQKQEAEEKPKSTTAASTSVPRSSKPSVEAKPVRKSRRTGAQRRAPSQ | 38800
11 | DPTKSVSAYWVPGGDYISPALQILMNEYLLSFCPTITLPQSLILVSKYFGFLL | 60700
12 | SLSVVLLHMRHRRLLFSVVMILFIFWMLYVGHCMLYVLLLLRVLLLSLHLWIV | 31700
13 | LEEYYWKTLNFTTPMYGADTPGSIFPEGLNVWNVAKLPNILDHMETKVPGVND | 88300
14 | GASAFGSAAQLGQKSSPWGSATSAVPSTGGAVFGSSGFGNAAPSAAPAFGKPS | 33200
15 | MEWVRLLSKEVLLFYSIFFFSFVSFTVLTLFPLHESSILSRLLIFIYPLRHLV | 44700
16 | KWKEKRSRNDEADGERGAERKPRKRSRSPRRRKEPEAAPERKQQEKPASAAPA | 45600
17 | LHLCLQVTKAYLERFHKFDPADITVCCSSVMFHFACAMKVLYRLLLLDDPGWD | 59900

Row | Sequence | transcriptional activation domain activity
18 | VDADTASSVSGMTGGRSARWREDVMELCLACVAVGCVKDVGAVNNYHQTGELR | 42700
19 | MYGHVWMGVLHCKLLLVGFLWVLFTLMPDMYIHGREGINSAYTIGHSFTIGFA | 47400
20 | EDSEEKPRKKTPRKAAASKPKSKGKKKADSDSGEESDAEPRAKKSATKGKGKK | 25500
21 | CFKLSLVALWPFGKSIDWNLRSAGCLSTVFNVIWLVLLGWHLCLIHLGLMLLF | 43600
22 | MSNVQTELPFFPSCFVFFRGSFSFFCLVLFPLMAFIIELSILSFRCLFLLFLL | 61300
23 | NPERRTGGRGGEGEKGRRREERDAGNRRRGGRNRAQRPKKGRRREGGRRGRGR | 48800
24 | DSAPTKRGRGRPKGSKNKNKSVASPSSPTSGAGSSAPRKRGRPPKAKPAESGA | 38300
25 | PAPSAAPAPAKEEDDDDEKEEAGGKADAKKKKKKKGKKDDEPAPAAAPAAAGK | 29400
26 | ASIPEPTANLFLDSINTFGSIDIFDSDLDLNNTLQWADLFDLNFDNIMMTPQF | 123000
27 | SLILVTYNTSHIACFYLLPQPHYFHLTSFLFLSIFFFLFSSLEHGSSFLAFFH | 52500
28 | VMLNQQILYFCLRILCMHAYAQFRMEDSDIWRMVEKKKHIYNRLIELVYTLCS | 46300
29 | EVIAGQQYAGLSFFAFVLRQDDIKSLDLILAEYFKVPTALDIIRSSLYLAIYS | 48600
30 | AAAGAADEAKTSSSPNGTKEAAVASSGGEKPAAAGVAGAPNSQSQTGAQPTKK | 28700
31 | LQRKNPEEQIAVNKVISLLYSNRESSYLEDTCPTENDYSDLLKGYINEIEKTL | 33800
32 | QELCRTANITYHRTSYPVVHRHLFSTPSLQRLMTWLKELPYQVAFQVELLVRG | 49100
33 | ALRLCRSLLFLCFPFTPIHFFWGSYSDFPPFFFLPAFPRLTLSLLLFYLLPFS | 55100
34 | MAERNLTLFSSFFFFLLFFFFFFFFFLEDVFLFFLRMLFTFVGSWFFFFFSYL | 7100
